The results in this text go back to publication PMC8067585.

The target in the test is CePoFUT1 single mutant M172C, singly labelled with ATTO488 or ATTO647N (Caenorhabditis elegans) (UniProt Q18014). Put plainly: single-molecule fluorescence coincidence (dual-colour PIE); CePoFUT1-A488 and CePoFUT1-A647N incubated 1:1 at 1 uM for 30 min in 10 mM Tris, 1 mM EDTA, 0.005% Tween 20, pH 8.5, diluted to 40 pM; substrates at 15-fold molar excess where added; monomer to dimer.

For the substance “CePoFUT1 single mutant M172C, singly labelled with ATTO488 or ATTO647N (from UniProt Q18014 26-383) (enzyme)”, the percent dimers (free form) amounted to 6.2%; the percent dimers (with GDP and HsEGF11-12-13) worked out at 4.6%; the percent dimers (with HsEGF11-12-13) is 6.7%; the percent dimers (with HsEGF12) worked out at 6.8%. In addition, the percent of total protein in a dimeric state was in the range of 4 to 6% and the stoichiometry N (commonly a count of units in the complex or per binding partner) came to 2.
